The record followed here is the supplement of paper PMC10567573.

± gives the standard deviation.

The data set in a line: protein stability index of a GFP-peptide fusion (GPS, HEK-293T) (PSI 1-6); higher = more stable.
Setting [1] is: treatment: DMSO, c terminus: a fixed tail appended.
The mark [2] stands for this setting: treatment: MLN4924 1 uM, 8 h, c terminus: a fixed tail appended.
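Also: 24-mer peptide tiles fused after GFP, lentivirally expressed, FACS-sorted into six equal bins by GFP/DsRed ratio, decoded by Illumina sequencing, PSI is the read-weighted mean bin number.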

As to LEQFVTRFLLKETLNQLQSLQNSL [NECAB1], the protein stability index stood at 2.87 ± 1.3 under setting [1] and 2.76 ± 0.27 under setting [2].
In the same order, the values of LEVNRLMGKLLQQPNTYADFEFLA [PKD2L1] are 2.17 ± 0.37 and 2.48 ± 0.14.
For the sequence LFFPEGTCSNKKALLKFKPGAFIA [LPCAT4], the protein stability index runs as follows: under setting [1], 1.86 ± 0.38; under setting [2], 2.41 ± 0.25.
Under setting [2], LFGHPGLDMELGPSQGQETNEVCE [ADAMTSL2] yielded a protein stability index of 5.29 ± 0.35.
Consider LFQRKLSWIKMTKLEYEEIALDLT [FAN1], for which the protein stability index reads like this: under setting [1], 3.02 ± 0.39; under setting [2], 2.45 ± 0.24.
With LFSDDYGGKNCKKPAEYGYVSLGR [CEBPB], the protein stability index is 3.02 ± 0.31 under setting [1] and 3.2 ± 0.33 under setting [2].
Taken in the same sequence, the figures for LGLRSLIPAVLTVSMLGYPFILPD [MYORG] were 3.1 ± 0.55 and 3.07 ± 0.36.
The sequence LGQNDTGFSCDGTANTFRVMFKEP [BTBD1] had a protein stability index under setting [1] of 3.36 ± 0.2 and a protein stability index under setting [2] of 3.29 ± 0.31.
Taken in the same sequence, the figures for LGVIQRDLAKTGCVDLTITNLLEG [AUP1] were 2.52 ± 0.18 and 2.61 ± 0.46.
With LGYFIRSWRTLAILVNLQGTVVFL [SLC22A15], the protein stability index by setting is: under setting [1], 2.71 ± 0.55; under setting [2], 2.62 ± 0.75.
In the same order, the values of LGYLLDKETLRLHPDIFLPSEICD [ZER1] are 2.4 ± 0.21 and 2.46 ± 0.17.
Regarding LHIFQLNEDGPSSENLEEETENII [TRIP13], the protein stability index came to 3.96 ± 0.58 under setting [1] and 4.21 ± 0.28 under setting [2].
Take LHPFFAGLTPEERSFHTSRNPSR [CLK3]: the protein stability index (treatment: DMSO, c terminus: native) was found to be 2.72 ± 0.38 and the protein stability index (treatment: MLN4924 1 uM, 8 h, c terminus: native) amounted to 2.73 ± 0.52.
Regarding LHPRGKNNFSPLHLAVDKNTTCVG [FEM1C], the protein stability index was 3.39 ± 0.13 under setting [1] and 3.43 ± 0.12 under setting [2].
Taken in the same sequence, the figures for LHSHRHLYPEGIGARQQQVTTYLH [POMT2] were 2.76 ± 0.21 and 2.82 ± 0.2.
In the same order, the values of LIPLANTGIVNHTHSRMGSIMSTG [CARM1] are 2.59 ± 0.12 and 2.47 ± 0.14.
Taken in the same sequence, the figures for LKIELETYKLKCKALQEENRDLRK [CCDC6] were 4.25 ± 0.29 and 4.63 ± 0.23.
With LKLTVVEDVTVGRRQAVAWLVAMH [ZFYVE21], the protein stability index runs as follows: under setting [1], 3.15 ± 0.56; under setting [2], 2.91 ± 0.57.
Taken in the same sequence, the figures for LKNEVERLKKQLRAAQLQHSEKMA [CCDC6] were 2.83 ± 0.32 and 3.14 ± 0.25.
Taken in the same sequence, the figures for LLARLRELEQQIWKERDEYITKVS [TRIM15] were 1.98 ± 0.36 and 1.96 ± 0.56.
Turning to LLCNAITGITLLRVKFKSQQHRQG [PTGFR], the protein stability index runs as follows: under setting [1], 2.38 ± 0.46; under setting [2], 2.21 ± 0.77.
Regarding LLECYIQYHHSKIRNRGYNLIYRS [TMEM192], the protein stability index runs as follows: under setting [1], 2.71 ± 0.5; under setting [2], 2.73 ± 0.6.
With LLGLRTFVAFAAKLWSFFIYLLRR [CTDNEP1], the protein stability index was 4.28 ± 0.38 under setting [1] and 4.16 ± 0.3 under setting [2].
Taken in the same sequence, the figures for LLGSSTACIVVLDRTSHRLHTANL [PPTC7] were 2.66 ± 0.39 and 2.46 ± 0.32.
In the same order, the values of LLKDKVRERIQILKTSEVTQHLPR [PTPN9] are 2.7 ± 0.32 and 2.99 ± 0.075.
As for LLLLLLASLLPSARLASPLPREEE [ADAMTS4], the protein stability index was 2.56 ± 0.07 under setting [1] and 3.08 ± 0.55 under setting [2].
In the same order, the values of LLLPGLNQHGIILKYIGMAKREIN [ARL6IP1] are 2.42 ± 0.68 and 2.38 ± 0.97.
For the sequence LLMVRASRRSGKTSAVLKAGRQSV [C6orf223], the protein stability index is, setting by setting: under setting [1], 2.63 ± 0.17; under setting [2], 2.85 ± 0.19.
In the same order, the values of LLNTDLHGHNIGKKMSCQQFIANL [PSD2] are 2.24 ± 0.29 and 2.46 ± 0.13.
The sequence LLQQNKSIQSLTLEWNSLGTWDDA [LRRC45] showed a protein stability index under setting [1] of 2.65 ± 0.094 and a protein stability index under setting [2] of 2.64 ± 0.42.
In the same order, the values of LLTITKAHSNAISNCCFTFSGHFL [WDR88] are 3.12 ± 1.1 and 2.59 ± 0.48.
With LLYLLHILLLDGAAWLTLWVFGTS [FADS1], the protein stability index is 3.38 ± 0.24 under setting [1] and 2.49 ± 0.25 under setting [2].
Taken in the same sequence, the figures for LLYSEVTASSLVKINLQGDIVDRG [ADD1] were 2.85 ± 0.52 and 2.42 ± 0.42.
LMELDMAMEPDRKAAVSHWQQQSY [CTNNB1]: the protein stability index reads like this: under setting [1], 3.11 ± 0.19; under setting [2], 3.33 ± 0.37.
Taken in the same sequence, the figures for LMGEIAKATFMYEQFPELMNMLWS [CLINT1] were 2.61 ± 0.62 and 2.33 ± 0.32.
Take LMHIAHIAELLEVFDLRMMVANIL [RHOBTB2]: the protein stability index amounted to 2.48 ± 0.4 under setting [1] and 2.31 ± 0.32 under setting [2].
LMKKIGQCPMRVQKEVAGFVLNRL [CRYL1]: the protein stability index runs as follows: under setting [1], 2.34 ± 0.38; under setting [2], 2.53 ± 0.24.
As for LMLELKSLQEEPVEGFRITLVDES [UBE2R2], the protein stability index amounted to 2.6 ± 0.39 under setting [1] and 2.77 ± 0.17 under setting [2].
Regarding LMNDVIDTSGFPDLSDNRNEDPLV [FBXO33], the protein stability index under setting [1] was 4.85 ± 0.17 and the protein stability index under setting [2] came out at 4.9 ± 0.18.
As to LNDISRKSEGLSGRVLRKLPFLAH [TRIP13], the protein stability index is, setting by setting: under setting [1], 2.11 ± 0.27; under setting [2], 2.57 ± 0.55.
With LPEWISCLIQKAQWTVGKLNCPFC [RNF180], the protein stability index runs as follows: under setting [1], 2.22 ± 0.19; under setting [2], 2.31 ± 0.087.
Regarding LPLAEREHVSRALCIHTGRELRCK [TRIB1], the protein stability index under setting [1] was determined as 3.99 ± 0.32 and the protein stability index under setting [2] is 3.93 ± 0.2.
For the sequence LPLMDLCRRSIRSALGRQRLQDIS [SPSB4], the protein stability index by setting is: under setting [1], 2.62 ± 0.12; under setting [2], 2.53 ± 0.34.
On to LPMWSNQTWNNSTWSNQTQNIQSW [NANOGP8], for which the protein stability index is, setting by setting: under setting [1], 2.45 ± 0.38; under setting [2], 2.56 ± 0.27.
In the same order, the values of LPPDALIIEYRGKFMLREQFEANG [KMT2E] are 2.57 ± 0.31 and 2.63 ± 0.18.
Regarding LPPQYVDDVISRIDRMFPEMSIHL [MED27], the protein stability index reads like this: under setting [1], 2.19 ± 0.087; under setting [2], 2.29 ± 0.29.
In the case of LPRRRGLRKKKTTKLRLERVKFRR [NEUROD6], the protein stability index under setting [1] stood at 3.85 ± 0.27 and the protein stability index under setting [2] was 3.97 ± 0.29.
In turn, LPSLSCRTSCSSRPCVPPSCHGYT [KRT33B] showed a protein stability index under setting [1] of 2.1 ± 0.11 and a protein stability index under setting [2] of 2.09 ± 0.36.
As to LPSSGEGLAFFTFPNIASATKFKQ [HMOX1], the protein stability index amounted to 2.75 ± 0.43 under setting [1] and 2.87 ± 0.18 under setting [2].
With LPSVTDIRRPRLYLLQWLKSDKAL [PLK2], the protein stability index is 2.33 ± 0.24 under setting [1] and 2.36 ± 0.49 under setting [2].
Turning to LQKDLETRPTQHELRLYKQQVKKL [CEP70], the protein stability index runs as follows: under setting [1], 4.19 ± 0.2; under setting [2], 4.42 ± 0.37.
For the sequence LQKKLDNLQCLYCEKTFRDKNTLK [ZNF277], the protein stability index turned out to be 2.64 ± 0.25 under setting [1] and 2.86 ± 0.3 under setting [2].
In the same order, the values of LRDTYKLWVPQPPPRTIKRTRRRL [PWWP2B] are 3.46 ± 0.19 and 3.64 ± 0.21.
For LREIRMLKQLKHPNLVNLIEVFRR [CDKL4], the protein stability index was 2.31 ± 0.3 under setting [1] and 2.13 ± 0.67 under setting [2].
In the same order, the values of LRFSGVNDTDFRVYLLGNPVVWWL [POMT2] are 2.85 ± 0.43 and 2.96 ± 0.6.
In the same order, the values of LRGKSIKRAPGEETEKEEEEEDRE [NEUROD6] are 5.66 ± 0.45 and 5.67 ± 0.3.
Taken in the same sequence, the figures for LRKKKTTKLRLERVKFRRQEANAR [NEUROD6] were 3.59 ± 0.34 and 3.59 ± 0.27.
For the sequence LRPQRTKQYVLLSILLCLLASGLV [TMEM106C], the protein stability index by setting is: under setting [1], 3.11 ± 0.38; under setting [2], 2.9 ± 0.26.
For LRQRESKWLDMLNNWDKWMAKKHK [TBC1D10A], the protein stability index runs as follows: under setting [1], 2.9 ± 0.24; under setting [2], 3.2 ± 0.41.
In the same order, the values of LSEALKEATKEVHTQAENAEFMRN [HMOX1] are 4.92 ± 0.1 and 5.01 ± 0.48.
As to LSELPPLEDMGQPPAEEAEQPGAL [FKBP8], the protein stability index by setting is: under setting [1], 5.59 ± 0.18; under setting [2], 5.72 ± 0.24.
Take LSGGLGAGSCRLGSAGGLGSTLGG [KRT17]: the protein stability index runs as follows: under setting [1], 2.47 ± 0.23; under setting [2], 2.37 ± 0.28.
Taken in the same sequence, the figures for LSIVLERMRYEGVVDIFQTVKMLR [PTPRD] were 2.1 ± 0.48 and 2.42 ± 0.58.
In the case of LSLLTNRGSKMFKLRQMRVEKFIY [MYOZ1], the protein stability index reads like this: under setting [1], 2.13 ± 0.34; under setting [2], 2.38 ± 0.14.
Take LSLRQTGSPGMIYSTRYGSPKRQL [KCNAB2]: the protein stability index reads like this: under setting [1], 2.98 ± 0.51; under setting [2], 3.17 ± 0.31.
In the same order, the values of LSQPTTNLVAGCLQLNARSFMMGQ [NEUROD6] are 2.31 ± 0.17 and 2.21 ± 0.26.
In the same order, the values of LSSWELEAWYEDLQEVLSSDENGG [DDIT3] are 3.19 ± 0.39 and 3.29 ± 0.34.
With LSVIQMVAFLEQRASALLASCSKN [FBXO34], the protein stability index by setting is: under setting [1], 2.81 ± 0.35; under setting [2], 2.71 ± 0.71.
Taken in the same sequence, the figures for LTEIYRIVSQKQIADRAAHDESPG [RAB11B] were 3.52 ± 0.12 and 3.52 ± 0.27.
In the case of LTISAAFNIVYIYTSELYPTVIRN [SLC22A15], the protein stability index runs as follows: under setting [1], 3.19 ± 0.14; under setting [2], 3.13 ± 0.33.
LTRRLAHGEELRVSARSREGRGGR [HAGHL] displayed a protein stability index under setting [1] of 4.87 ± 0.22 and a protein stability index under setting [2] of 4.99 ± 0.079.
In the same order, the values of LTVRLHTQSVSECITEDGRTVAVG [PWWP2B] are 3.2 ± 0.33 and 3.15 ± 0.044.
